The series is described as follows: label from the status in PepcDB records.
In the case of “MSASAPQAHGPAATGTVTTDVPARLDRLPWSRWHWMIVIGLGTVWILDGLEVTTVGNIAGRLSEDGSGLSITSAQVTGVAAALYVAGACAGALFFGWLTDRFGRKKLFMVTLVVYLSATALTALSFNSWWFFTFRFLTGFGIGGEYAAINSAIDELIPAKYRGRVDLIINGSYWLGAIGGALLSIVMLDTSIFPKDLGWRLTFALGVVLGLVILLVRRHVPESPRWQFIHGRGEDAEALVSSVEREIEQEKGEPLPRAESEITIEQRKSIGFGLIAKTVFGRYPKRAVLGLALFIGQAFLYNAITFGFGAILTTFYDVPTGGTGYYFAVIAAGNFIGPLLLGKLFDTVGRRIMIASTYLLSGLLLFGTAWLFDRGSLSAMTLTACWCAVLFFASAGASSAYLTVSEVFPMETRAMAIAFFYALGTAAGGISGPLVFADLTESGVVGDTVLAFQIGAGLMCAAGLVAAFLAVNAERRSLEDIAEPLSVAQTTAPAPASASGT”, the protein production result was “failed”.
For “LAQEKNYDLPEGVMVYVIEGPFFFGAVETFQSALANTHTDPKVLIIRMRWVPFIDVTGLQAMEEIILNLQKRGVRVLLSEANPLVDAKLRKMGIVQLIGEQNYYKEFSQALDVCRINDSDRKSQPPFEVAKPLASVTQ” the value was “not failed”; for “QHDSSRKLGLLQEMIGGGWWRYWAEQELFELAPALHDSLGLTGEYRRVPLEHLQGLLQPADADELGLRLRASLRSGQALAQDLCLRQPDSRGERRWLRIEGRPLGRGSALGLSGVLLDISEGRRQEER”, “failed”.
For “MKKFGLGVYLLLLGILGGSLIILGAIVAPIVFKASSVLPELHLTPFESGKLMAQIFVRFNYVLGAIGFVVLLYEIISFIYYKRSLVYLILGVAIGALCLLFVFYYTPYILNAQKAGEAALQSAEFARSHAQSEWLFKELFVLVCALFFWRLLGKNVL” the value was “failed”; for “MDYSIADCLAANQYTTACCIVQSWTRGEVLLSSYQRVALFIFFDSIEKDLVTHIRSLAGLVTTGFLSAQERDKAAQRAEKSDEPGTVAKDDFELLYQLDLGDKIAIAQRLKQHFGDAFRKHFSAKAASLQAAVPVRNSVMHGRPLTVEEHATAFALANDLVKSNGFWPVLHKALVDYNTDPEAITRRAVSFLEHPSEGGIFHNLPLPDYDDTGFVPRPQLEQELKKKILSRHPVVTVLGDGGNGKTALTVQALYSLVNSGDHDFDAIVWVSAKSSKLTVGEIQRIEHAITTSMGLFEEVVGIFEEDKSNPMSRVRQLLENNKILLAIDNLETVLDDTIRDFVSDIPGQSKVVLTSRIPVGGDLTVEVKPLTDNEGEIYLRALIKSYSIKTLSSLRQDELRYFASRLERRPLLLKWFCMGVIAGLPASKIVSNPEMALRFCLENVFDALSPDATMTLSLMSILPRAVSLGVLHYVSSTDIRKLEAGVAELLKFSILETENQSGYELNYRIKPFARAYVARILRLTAEAQEAVIRKFRGLSFAYQAERGAEGQEKYNFRNFTVRSISEALAAGKLREAVKLAYNDEFEAANAIIDTLKVSNHDYFEVFRTDAFIRFRQHDFAGATDAYRSALELSPETPQLYFFFGGFLLRGYGDCPAAIAQFEEALKRDPESTDVKRELARAKMFDYDFEGAMKILSLERTKPLSNMRTQLIFADLQTQNFQRMITHKSAVGIDADLEAPCSAFADFLVTLDPRIVDSKMTEHLRKARSSIVQALHTRSVRAGARVVALLDKLIGELEASRDDTTDHCASASGLLGTLKEKGRKPNFGFLVDRSNREYFVARAMVSDLVWEGLEGGKIASFEVELDNQGRPRATNVYLI”, “failed”; for “MLAVLIGQHGEYLLIFLVSPGQFQEGVMTVHDHWQMDASAPELYERYLVPAITSVWADDLLDRIDPAKGECVLDVACGTGVVARRLAERGHVGRLVGIDLNGAMLAVARAKSSDVEWTEGSALDLPFATRSFDVVLCQLGLQFFPDRPQALREMARVLKPSGRLGLSVYSAIEHTPAANAFVQALDGFLGPESSRTKRAEHLTCNADEVGNWVRQAGFDRVGVETVTKQIGFPSALDYVRFQLTATPMAALLTREDDAGRERTIAAIADDVAARLDPSILANGRLTFPQESFVVVASLR”, “failed”.
For “MAVPSFFTLMNLLCGFMALTQVADAAFVLACWLIVLAGFFDLLDGVMARLTGADSPFGVQLDSLSDIVSFGVAPSFLLYGYVLDTFNPLGMIVAALPALCGAVRLARYNMTADESDKEGFEGLPIPGQAIAVVALILAAENSAWDGRFALDSLRVVLPVVIVLSGLMVSSIRFDAIPMPSLEAVRTHPSKIAAYGLAGLLIVGLQERGLLIVLTAYLLHGVGRALYKLMRALVAPVPDERLGS” the value was “failed”.
For the sequence “MLHIDDAMIEDAVTPQAAQEVLHAAFLDFGRGSAAMQRRVRTEAGGVKLSTLGAVIPGQGVAGAKVYTTIKGQFQFVILLFSAADGRPLATCDAGTLTRKRTAACTVLAAGALARPRSSVLGLFGAGTQGVEHAAQLSARFALEAILVHDPHASPEVVERIGRRCGVPARMAAPADIAAQADIVVTATRSATPLFAGQALRAGAFVGAIGSSLPHTRELDDEALRRARAVVVEWREQTLSEAGDLVLAAPDTGLDAKVVELADVLAGRATARQADEDIVIYKSVGVGLEDVALAGYAYRRLAAQRGWPAP”, the protein production entry is on record as “failed”.
For “MTVEYTASDLATYQNEVNEQIAKNKAHLESLTHPGSKVTFPIDQDISATPQNPNLKVFFFDIDNCLYKSSTRIHDLMQQSILRFFQTHLKLSPEDAHVLNNSYYKEYGLAIRGLVMFHKVNALEYNRLVDDSLPLQDILKPDIPLRNMLLRLRQSGKIDKLWLFTNAYKNHAIRCLRLLGIADLFDGLTYCDYSRTDTLVCKPHVKAFEKAMKESGLARYENAYFIDDSGKNIETGIKLGMKTCIHLVENEVNEILGQTPEGAIVISDILELPHVVSDLF” the value was “not failed”; for “MKVCYYYDGDVGNYYYGQGHPMKPHRIRMTHNLLLNYGLYRKMEIYRPHKANAEEMTKYHSDDYIKFLRSIRPDNMSEYSKQMQRFNVGEDCPVFDGLFEFCQLSTGGSVASAVKLNKQQTDIAVNWAGGLHHAKKSEASGFCYVNDIVLAILELLKYHQRVLYIDIDIHHGDGVEEAFYTTDRVMTVSFHKYGEYFPGTGDLRDIGAGKGKYYAVNYPLRDGIDDESYEAIFKPVMSKVMEMFQPSAVVLQCGSDSLSGDRLGCFNLTIKGHAKCVEFVKSFNLPMLMLGGGGYTIRNVARCWTYETAVALDTEIPNELPYNDYFEYFGPDFKLHISPSNMTNQNTNEYLEKIKQRLFENLRMLPHLEHHHHHH”, “failed”; for “MTVKTEAAKGTLTYSRMRGMVAILIAFMKQRRMGLNDFIQKIANNSYACKHPEVQSILKISQPQEPELMNANPSPPPSPSQQINLGPSSNPHAKPSDFHFLKVIGKGSFGKVLLARHKAEEVFYAVKVLQKKAILKKKEEKHIMSERNVLLKNVKHPFLVGLHFSFQTADKLYFVLDYINGGELFYHLQRERCFLEPRARFYAAEIASALGYLHSLNIVYRDLKPENILLDSQGHIVLTDFGLCKENIEHNSTTSTFCGTPEYLAPEVLHKQPYDRTVDWWCLGAVLYEMLYGLPPFYSRNTAEMYDNILNKPLQLKPNITNSARHLLEGLLQKDRTKRLGAKDDFMEIKSHVFFSLINWDDLINKKITPPFNPNVSGPNDLRHFDPEFTEEPVPNSIGKSPDSVLVTASVKEAAEAFLGFSYAPPTDSFL”, “failed”.
For “GPVPTPPDNIQVQENFNISRIYGKWYNLAIGSTCPWLKKIMDRMTVSTLVLGEGATEAEISMTSTRWRKGVCEETSGAYEKTDTD” the value was “failed”; for “EDDYYYPSVKLEFVTVKAGTDGSIQTLIPDNGEALTVSKDRTGSAISPNTSRRVMSNYETLSNGHTATAVIYSLQSLVTPTPKPADDPTYRDGLKHDPVDVVSIWLGRGYLNMILNLKVNGGKQHVFGIVEDLSEFETNGTVNMLLYHDANGDEEYYNRRAYLSVPLDKYADAENPGQKITIKFKYYTYDKDGTAIESGKYCNPGFEYVPDKN”, “not failed”.
For “MITRTVKAQLLAFATVTAVGVSYVGAEYTGLVDDVLGRGYTVRADFADSGGIFPGAEVTYRGVPVGRVGALRLTGSDGVSVALDIKDGVPRIPADTLAVVANRSAVGEQYVDLQPRTSHGPYLLDGSAIPRGSTRVPLPTTDLVLSLDRLVDSVGKDDLRVTVDELGKAFSGTGPNLSRLVDSGNALVESASESLPQTISLIEDSRKVLKTQADQGSSIKSFAHDLAALSAQLKSSDGDLRKLIGNATPAAQQVNSLLKSTGPRLSVLLANLISGGQVTLARLPGVEQSLVTFPALVAGSYTVVPGDGTTHFGLVVNADDPPPCTQGYGTTRRDPSDTSTREANTDARCTAPRGNKTSVRGAQNAPGASTTSGGTNQAAYVTPYDPETGTATGPDGRPVEIGSTGGQQAVFGRESWQWLLVGPMA” the value was “failed”; for “MLSEQALELIDIVARVGSFTAAANRLHKVPSAVSYAVKQIEEELGVVLFERHHRSVTLTPAGGHFVKQARNLLTQIDEMKRGTQRVANGWQPTLSIALDNIVRADRISVLIADFYRHFHDIELIIRIEVFNGVWEALATGHSDVAIGATTAIPVGGVFQYKDMGDIEWAFLVSKNHPLANIDRPLTDEELRPFPSICLEDTSREIPKRMTWLLENQRRLVVPDWIRAINCFREGLGIGYMPVHLASVFIKAGALVEKQLENPKLTSPCCLAWNADKMSPALAWVLDYLGDTDKLHREWLA”, “failed”.
As for “MTNNAKKEPQQRGKHQVHNVRFYTIKPREIVSLAYSKSSKCLALSRATPVIELWNLEHAPYLDRVIHLPTDSHVESIAWAGNRLFSVDLSGKLIEWDVIKLKQRYEHSPTGNALWSIDVNPAETDIAIGSEEGHINILSIENDEITYKSLFNKQKGRVLCIKFDKTGTKLVTGTEGFVRIWNVLKGTTLHTMTLSEKNVIVWSLQVLSDNTIIAGDSAGFVTVWDADNATQIDSTRVLDKNVFALAVNNKEDRLVCSGMQPPLIRIFSKTKIKREESTSERWIKFLQRDAHKHYVKSLLVIDDQIYSGGRDGILTITSSERMQAHLSQHAPFLKGSVASMAISKKLLLLRYPNSVHLWRLGSVAPQGEDKKKPWALPVGHTEEQLLELPPQKLLQLNVKEHNFIQSAAISSDANWICYSTLKELRISRLKSDPLQVERLVDDLPEELQPASHIIFTKQGDLVLLNPQNNHLSWFTLEEDLVTFKYTIDLSEKCKNTISHVVISSHGEYIVAASSDHIISVWKLHGKQYKHLLNLPRHRAGTTALSMHEDYPRVVVAYANGQLVEYDLVNRIFTCETNEYLIPETRRHCINGISLDPQNRNIFIVHTEGNLYVLERDQHLDPKELVSNSKSKKLSNGNRSSVDGGSKGLSLKTTLSRQHLVHVSRLSPNELVNVSISTNNLLAPLPPPYQRKKFGAS”, the protein production entry is listed as “failed”.
As for “MNAPSLKEENALTITRVFDAPANLVFKVWTTPEHLARWWGPKGFTVPAITTDFREGGAWRGCIRSPEGQDYWAHGIYREIVAPSRIVLSFVWEEEGAIDTLITVTLEDVAGGTRLTFHQAPFTSAESRDSHAEGWSECMDRLVSYVAARKEEVQ”, the entry is “failed”; as for “MLVLDVAARVWPFFLLVAAGVALSRLRLLDARMTQGLSAYVYWVGFPALLIHSLSRLGRPGPELWSGLAAYAAVGLAVMASLVVGGRALGWSRPERAGAAMAAGVGNSAFLAVPVTAAVLGAETARLVAGAIAADFVVLAAAGVGLLGWAAGRSVWRAMAQAFQNPVVIAALLGLLLALLNLALPQPLDRAVGLAAASGSPVGLVALGAALGLPQTEDEPGPRAGPVVLAALAKLLAFPLLVWLAIGLTPAPAEFRTGATLVAAAPTAVNVFIQTRAYGVWPRGAARIVALTTALAIVSLSLVAILLTARVS”, “failed”; as for “RTDRTALIDLMQALNQHMTYTQGATEVDTSAAQAFAGRSGVCQDHTHAFLACARSLGVPARYVSGYLCSEDSEHLSSHAWAEAWIDDAWYSFDVTNQLAIPERHLKLAVGLDYLDACPVRGMRRG”, “failed”.

(Values after a protein production outcome set (Wang et al. 2014).)
